# Data published in the supplement of paper PMC10724198.
# ± gives the standard deviation of the averaged measurements.
# Test system: Saccharomyces cerevisiae
# Test: protein stability index of tFT-peptide fusion (C-terminal peptide) (PSI (0-1 scale)); higher = more stable (slower turnover)
# Conditions: genetic background: wild type; temperature: 30 C
# 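Further: PSI is a weighted mean of sequencing reads over stability bins, variants kept only with over 10 reads, mCherry proximal and sfGFP distal, peptide attached via GGGS linker.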
row,Sequence,protein stability index
1,LLRGDVVALRAH,0.618 ± 0.052
2,LLRLLYVGVVGR,0.573 ± 0.027
3,LLRRSNLLHLVL,0.574 ± 0.049
4,LLRYKWSRHLVG,0.47 ± 0.046
5,LLSLFLLSPSVI,0.681 ± 0.007
6,LLSLRSPCSSSR,0.697 ± 0.066
7,LLSPLRPPPFAP,0.698 ± 0.041
8,LLSVFPLHPGSP,0.73 ± 0.047
9,LLVLHVFPLASH,0.553 ± 0.035
10,LLVLSTVFNYPI,0.655 ± 0.071
11,LLWPVFQCLPLL,0.729 ± 0.045
12,LLYPRYFSTGIT,0.558 ± 0.065
13,LMHDIRLCSSVV,0.702 ± 0.074
14,LMLSGFGSFCVA,0.659 ± 0.025
15,LMRFFSCTLSFE,0.62535 ± 0.00026
16,LMRSFLHFHLCL,0.632 ± 0.01
17,LMVCQKPYCMRI,0.678 ± 0.0014
18,LNLISGVRFSLY,0.675 ± 0.043
19,LNQHEQKRKNEG,0.724 ± 0.098
20,LNRTLCYKCILR,0.564 ± 0.018
21,LNSTDMNKKKFK,0.719 ± 0.0092
22,LPAEGSTKSRSY,0.741 ± 0.055
23,LPAPLLSPPRHF,0.746 ± 0.072

row,Sequence,protein stability index
1,LPARSLPPPRPP,0.653 ± 0.0089
2,LPASSPTEYPPP,0.713 ± 0.049
3,LPFFFPPFFITR,0.532 ± 0.013
4,LPFLLPLVTPLP,0.696 ± 0.068
5,LPFPPSPPLPSP,0.57 ± 0.0099
6,LPGFTLPSSPSH,0.702 ± 0.034
7,LPGGLSPPPFRI,0.715 ± 0.064
8,LPGTVELHSSRL,0.755 ± 0.022
9,LPHPRLPSPPGP,0.6858 ± 0.0056
10,LPILPSPLPPPL,0.69 ± 0.049
11,LPIPCPSPPPPR,0.708 ± 0.052
12,LPLPPRFRRLYL,0.7 ± 0.038
13,LPLPVLPCVPPV,0.595 ± 0.028
14,LPLQYPPSLLRL,0.6655 ± 0.0065
15,LPLRVPPPPSSH,0.743 ± 0.085
16,LPLSGIETSVSR,0.683 ± 0.03
17,LPLSSLLRPRHS,0.684 ± 0.056
18,LPNLCRLISFGS,0.646 ± 0.036
19,LPPAPLLSLPSL,0.6921 ± 0.0034
20,LPPCSPLIFYFH,0.636 ± 0.032
21,LPPHSAPLAHGP,0.714 ± 0.065
22,LPPLAACAPSAV,0.615 ± 0.051
23,LPPLAPAPPTTS,0.617 ± 0.0065

row,Sequence,protein stability index
1,LPPLLAPPVSPL,0.698 ± 0.039
2,LPPPLPPATPPP,0.675 ± 0.16
3,LPPPPPSSSPSP,0.7005 ± 0.0067
4,LPPPPRPLPPSP,0.696 ± 0.04
5,LPPPPSFTSPHL,0.743 ± 0.12
6,LPPPSLPPLPLF,0.728 ± 0.065
7,LPPPSPGLPLSP,0.6773 ± 0.0059
8,LPPRAPPTCFPL,0.658 ± 0.12
9,LPPRPPPPPPPA,0.62606 ± 2.4e-05
10,LPPRPTPPPPPP,0.71 ± 0.056
11,LPPSNYPCPSGK,0.706 ± 0.02
12,LPPSPPDPTPPP,0.594 ± 0.0095
13,LPPSQLPPPHLT,0.662 ± 0.019
14,LPPSTSPPIRPP,0.663 ± 0.043
15,LPPTAPAPPSPP,0.716 ± 0.086
16,LPPTLPPPPPAL,0.724 ± 0.032
17,LPQAVPCRTPPL,0.679 ± 0.054
18,LPQLPNSRRLPL,0.648 ± 0.049
19,LPQSSRKEAHHH,0.78 ± 0.062
20,LPRELFSQQRFL,0.713 ± 0.0097
21,LPRLSPSPRPSR,0.719 ± 0.008
22,LPRPPLLTPSCL,0.746 ± 0.06
23,LPRSAPLHFPAC,0.688 ± 0.02

row,Sequence,protein stability index
1,LPSCKVSLASLL,0.6281 ± 0.0035
2,LPSLFSPPLFPL,0.702 ± 0.0017
3,LPSPPASSPRRS,0.684 ± 0.025
4,LPVDPDTIIVVK,0.663 ± 0.019
5,LPVFVIGEFLLV,0.49 ± 0.037
6,LQEQIHKPPKPQ,0.72 ± 0.00088
7,LRAPFGWVKRFL,0.663 ± 0.069
8,LRFGGWFLIGLR,0.583 ± 0.021
9,LRGPRRAVEGTP,0.66 ± 0.031
10,LRIAKSGVGGFA,0.636 ± 0.029
11,LRISIEVTNYGP,0.517 ± 0.021
12,LRIYIKTGAKGV,0.71448 ± 0.00053
13,LRKAKRDKRIKI,0.759 ± 0.075
14,LRKDVRTRSNTK,0.806 ± 0.051
15,LRKGGGVGVWRG,0.687 ± 0.012
16,LRLCPAPYIPVL,0.591 ± 0.012
17,LRLDFPPARPHS,0.697 ± 0.044
18,LRLLCRTRCYRS,0.666 ± 0.019
19,LRLPKGVSLVDI,0.6093 ± 0.0053
20,LRLPPPLCPLRS,0.623 ± 0.054
21,LRLPSHHPLCYF,0.684 ± 0.011
22,LRPCAGAVRPSA,0.724 ± 0.0099
23,LRPGVRHFRECV,0.627 ± 0.096

row,Sequence,protein stability index
1,LRPLVRLLHSYP,0.718 ± 0.031
2,LRPPPPSAGAPP,0.708 ± 0.088
3,LRRPVDPSHIPI,0.663 ± 0.07
4,LRRRGHCLRGEL,0.6313 ± 0.0023
5,LRRTMRLASASF,0.831 ± 0.014
6,LRSCLSIYDCSS,0.618 ± 0.16
7,LRSHKIVDQDPF,0.7235 ± 0.005
8,LRSPFPTPSDLV,0.714 ± 0.051
9,LRSPSDSLALPL,0.666 ± 0.028
10,LRVGMWNNVINR,0.734 ± 0.12
11,LRVVISWGLDLY,0.529 ± 0.02
12,LRWFLTGWPRGE,0.699 ± 0.16
13,LRYARAPFPAPP,0.699 ± 0.024
14,LSARIGEMVDTW,0.56 ± 0.027
15,LSARSSFIFSYY,0.645 ± 0.017
16,LSDGATDIGCLL,0.741 ± 0.037
17,LSDKTALDRPVH,0.625 ± 0.057
18,LSDMNHVLKVFL,0.665 ± 0.054
19,LSEFFLSAFLSC,0.712 ± 0.011
20,LSFFGPPFPISF,0.74 ± 0.043
21,LSFPFLFSVPFL,0.733 ± 0.021
22,LSGCASGYRPPW,0.683 ± 0.047
23,LSGGAVVEVHFL,0.674 ± 0.011

row,Sequence,protein stability index
1,LSGLLGGGAGTL,0.678 ± 0.013
2,LSGLVPSLGCRR,0.786 ± 0.06
3,LSGPPVSVQRSF,0.594 ± 0.03
4,LSGYLVCSLSLR,0.695 ± 0.045
5,LSIIRSPDWVDC,0.639 ± 0.059
6,LSLDMVAPTGLA,0.686 ± 0.014
7,LSLPTLPLPPPS,0.7173 ± 0.006
8,LSLSILFTPSPN,0.682 ± 0.051
9,LSLSPPPASPIP,0.692 ± 0.011
10,LSPFPLFAPFNF,0.635 ± 0.039
11,LSPHSSLTPPPH,0.616 ± 0.037
12,LSPLPPDLPDLP,0.699 ± 0.12
13,LSPLPPSPPPST,0.543 ± 0.025
14,LSPPPPLALTPS,0.709 ± 0.021
15,LSPTPSAPPCFG,0.601 ± 0.043
16,LSRFLPESVYMS,0.679 ± 0.011
17,LSRFPSPPPLSH,0.701 ± 0.024
18,LSRLRVLLTPIS,0.56 ± 0.075
19,LSRVLQAPRRGG,0.681 ± 0.0075
20,LSSCLFDPIFLF,0.783 ± 0.018
21,LSSQCIVQLFRA,0.64 ± 0.025
22,LSSSTHNLDFLQ,0.698 ± 0.041
23,LSSTIFHRSCVR,0.759 ± 0.02

row,Sequence,protein stability index
1,LSTCSFSFFLHT,0.66 ± 0.019
2,LSTSLPLSPPPP,0.652 ± 0.013
3,LSTTQSKTLNPR,0.682 ± 0.052
4,LSVFWRGSLWTL,0.635 ± 0.023
5,LSVMACGMGESI,0.696 ± 0.017
6,LSVVLARLCQGS,0.6842 ± 0.0052
7,LSYGQKARIKRE,0.703 ± 0.075
8,LSYPPPPTQPPA,0.734 ± 0.0083
9,LTAFFPFSTFFP,0.714 ± 0.042
10,LTEFVVFFFFVF,0.5166 ± 0.0049
11,LTFILGPPRMWL,0.669 ± 0.018
12,LTFSVQCVYFDS,0.571
13,LTGESGDRSVGP,0.657 ± 0.019
14,LTPGFSRIDRAP,0.718 ± 0.062
15,LTRLAYGLATAL,0.664 ± 0.019
16,LTRQCLLPGWGL,0.707 ± 0.067
17,LTRSIKVWRAMR,0.686 ± 0.018
18,LTSPPRPAFVRV,0.636 ± 0.035
19,LTSSYSLCFLAP,0.696 ± 0.011
20,LTTPTIAKTREN,0.691 ± 0.016
21,LTVLPAVNCFPV,0.681 ± 0.021
22,LVAFNCVVLGKG,0.686 ± 0.014
